Reference: publication PMC10397247

Columns and labels:
Test in all cases: two-hybrid library CCmax;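 further: natural log of median RNA to DNA barcode read ratio; higher means stronger binding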
Core_INNN-es_KEKE = biological target: T1, Core_INNN-es_KEKE; conditions: mean of both orientations
T1 chain: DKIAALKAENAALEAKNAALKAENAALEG

Core_IIII-es_KKKE = biological target: T2, Core_IIII-es_KKKE; conditions: mean of both orientations
T2 chain: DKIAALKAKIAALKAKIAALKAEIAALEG

Core_INII-es_KKKK = biological target: T3, Core_INII-es_KKKK
T3 chain: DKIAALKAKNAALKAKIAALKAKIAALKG

4H3001-AA = biological target: T4, 4H3001-AA; conditions: mean of both orientations
T4 chain: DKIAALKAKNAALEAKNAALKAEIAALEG

4H1650-AA = biological target: T5, 4H1650-AA; conditions: mean of both orientations
T5 chain: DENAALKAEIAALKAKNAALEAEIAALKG

4H2732-AA = biological target: T6, 4H2732-AA; conditions: mean of both orientations
T6 chain: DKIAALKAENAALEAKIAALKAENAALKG

4H_GCN4 = biological target: 4H_GCN4
4H249-AA = biological target: T7, 4H249-AA; conditions: mean of both orientations
T7 chain: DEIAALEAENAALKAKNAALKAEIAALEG

4H406-AA = biological target: T8, 4H406-AA; conditions: mean of both orientations
T8 chain: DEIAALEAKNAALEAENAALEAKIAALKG

4H2931-AA = biological target: T9, 4H2931-AA; conditions: mean of both orientations
T9 chain: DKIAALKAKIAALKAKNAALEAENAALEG

4H2343-AA = biological target: T10, 4H2343-AA; conditions: mean of both orientations
T10 chain: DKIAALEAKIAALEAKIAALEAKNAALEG

4H452-AA = biological target: T11, 4H452-AA; conditions: mean of both orientations
T11 chain: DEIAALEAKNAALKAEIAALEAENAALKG

4H2253-AA = biological target: T12, 4H2253-AA
T12 chain: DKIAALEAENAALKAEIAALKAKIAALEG

4H347-AA = biological target: T13, 4H347-AA; conditions: mean of both orientations
T13 chain: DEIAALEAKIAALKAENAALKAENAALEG

4H3438-AA = biological target: T14, 4H3438-AA; conditions: mean of both orientations
T14 chain: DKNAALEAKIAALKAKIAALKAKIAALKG

4H2165-AA = biological target: T15, 4H2165-AA; conditions: mean of both orientations
T15 chain: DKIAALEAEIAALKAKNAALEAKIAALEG

GCN2_T = conditions: mean of both orientations
4H56-AA = biological target: T16, 4H56-AA; conditions: mean of both orientations
T16 chain: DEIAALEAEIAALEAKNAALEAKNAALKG

4H_APH = biological target: T17, 4H_APH; conditions: mean of both orientations
T17 chain: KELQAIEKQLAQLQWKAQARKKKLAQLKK

4H1828-AA = biological target: T18, 4H1828-AA; conditions: mean of both orientations
T18 chain: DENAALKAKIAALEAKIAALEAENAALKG

4H2466-AA = biological target: T19, 4H2466-AA; conditions: mean of both orientations
T19 chain: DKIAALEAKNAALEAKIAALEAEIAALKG

4H2124-AA = biological target: T20, 4H2124-AA; conditions: mean of both orientations
T20 chain: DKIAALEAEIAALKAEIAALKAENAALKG

4H2330-AA = biological target: T21, 4H2330-AA; conditions: mean of both orientations
T21 chain: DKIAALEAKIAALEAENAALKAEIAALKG

4H2592-AA = biological target: T22, 4H2592-AA; conditions: mean of both orientations
T22 chain: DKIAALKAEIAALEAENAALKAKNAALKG

4H1930-AA = biological target: T23, 4H1930-AA; conditions: mean of both orientations
T23 chain: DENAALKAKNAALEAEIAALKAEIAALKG

4H3073-AA = biological target: T24, 4H3073-AA; conditions: mean of both orientations
T24 chain: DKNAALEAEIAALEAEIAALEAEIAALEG

4H175-AA = biological target: T25, 4H175-AA; conditions: mean of both orientations
T25 chain: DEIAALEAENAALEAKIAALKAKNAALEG

4H_BCR = biological target: T26, 4H_BCR; conditions: mean of both orientations
T26 chain: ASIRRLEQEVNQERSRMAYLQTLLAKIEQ

4H1821-AA = biological target: T27, 4H1821-AA; conditions: mean of both orientations
T27 chain: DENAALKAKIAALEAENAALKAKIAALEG

4H2774-AA = biological target: T28, 4H2774-AA; conditions: mean of both orientations
T28 chain: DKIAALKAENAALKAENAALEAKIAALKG

4H1615-AA = biological target: T29, 4H1615-AA
T29 chain: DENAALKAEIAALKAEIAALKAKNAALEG

4H1765-AA = biological target: T30, 4H1765-AA; conditions: mean of both orientations
T30 chain: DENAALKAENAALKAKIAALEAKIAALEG

4H3015-AA = biological target: T31, 4H3015-AA; conditions: mean of both orientations
T31 chain: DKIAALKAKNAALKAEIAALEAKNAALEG

4H_GCN4, sequence (chain, as listed by the source): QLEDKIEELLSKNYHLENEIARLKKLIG

DEIAALEAKNAALKAENAALEAKNAALKG [Core_INNN-es_EKEK]
interaction score (Core_INNN-es_KEKE): 2

DEIAALEAEIAALEAEIAALEAKIAALKG [Core_IIII-es_EEEK]
interaction score (Core_IIII-es_KKKE): 2.4

DEIAALEAENAALEAEIAALEAEIAALEG [Core_INII-es_EEEE]
interaction score (Core_INII-es_KKKK): 1.29

DENAALKAEIAALKAEIAALKAKNAALEG [4H1615-AA]
interaction score (4H3001-AA): -1.81 | interaction score (4H1650-AA): -1.46 | interaction score (4H2732-AA): -1.79 | interaction score (4H_GCN4): -1.57 | interaction score (4H249-AA): -2.1 | interaction score (4H406-AA): -1.66 | interaction score (4H2931-AA): -1.79 | interaction score (4H2343-AA): -0.958 | interaction score (4H452-AA): -1.96 | interaction score (4H2253-AA): -1.57 | interaction score (4H347-AA): -1.38 | interaction score (4H3438-AA): -0.739 | interaction score (4H2165-AA): -1.55 | interaction score (GCN2_T): -1.38 | interaction score (4H56-AA): -1.15 | interaction score (4H_APH): -1.58 | interaction score (4H1828-AA): -1.78 | interaction score (4H2466-AA): -1.57 | interaction score (4H2124-AA): -1.09 | interaction score (4H2330-AA): -1.4 | interaction score (4H2592-AA): -1.27 | interaction score (4H1930-AA): -1.07 | interaction score (4H3073-AA): -0.406 | interaction score (4H175-AA): -1.43 | interaction score (4H_BCR): -1.79 | interaction score (4H1821-AA): -1.23 | interaction score (4H2774-AA): -1.47 | interaction score (4H1615-AA): 1.78 | interaction score (4H1765-AA): -1.45 | interaction score (4H3015-AA): -1.68
